Like-named read-outs stand apart in the source and are kept apart here.
B1: L1705I/V1967I double mutant of the yeast CT domain (residues 1476-2233) (enzyme)
chain: GSMHLRPIATPYPVKEWLQPKRYKAHLMGTTYVYDFPELFRQASSSQWKNFSADVKLTDDFFISNELIEDENGELTEVEREPGANAIGMVAFKITVKTPEYPRGRQFVVVANDITFKIGSFGPQEDEFFNKVTEYARKRGIPRIYLAANSGARIGMAEEIVPLFQVAWNDAANPDKGFQYLYLTSEGMETLKKFDKENSVLTERTVINGEERFVIKTIIGSEDGLGVECIRGSGLIAGATSRAYHDIFTITLVTCRSVGIGAYLVRLGQRAIQVEGQPIILTGAPAINKMLGREVYTSNLQLGGTQIMYNNGVSHLTAVDDLAGVEKIVEWMSYVPAKRNMPVPILETKDTWDRPVDFTPTNDETYDVRWMIEGRETESGFEYGLFDKGSFFETLSGWAKGVVVGRARLGGIPLGVIGVETRTVENLIPADPANPNSAETLIQEPGQVWHPNSAFKTAQAINDFNNGEQLPMMILANWRGFSGGQRDMFNEILKYGSFIVDALVDYKQPIIIYIPPTGELRGGSWVVVDPTINADQMEMYADVNARAGVLEPQGMVGIKFRREKLLDTMNRLDDKYRELRSQLSNKSLAPEVHQQISKQLADRERELLPIYGQISLQFADLHDRSSRMVAKGVISKELEWTEARRFFFWRLRRRLNEEYLIKRLSHQVGEASRLEKIARIRSWYPASVDHEDDRQVATWIEENYKTLDDKLKGLKLESFAQDLAKKIRSDHDNAIDGLSEVIKMLSTDDKEKLLKTLK
notes: also called mutated yeast CT domain; mutant CT domain; not shown: C-terminal His-tag of the parent pET24d construct
B2: L1705I (protein)
chain: GSMHLRPIATPYPVKEWLQPKRYKAHLMGTTYVYDFPELFRQASSSQWKNFSADVKLTDDFFISNELIEDENGELTEVEREPGANAIGMVAFKITVKTPEYPRGRQFVVVANDITFKIGSFGPQEDEFFNKVTEYARKRGIPRIYLAANSGARIGMAEEIVPLFQVAWNDAANPDKGFQYLYLTSEGMETLKKFDKENSVLTERTVINGEERFVIKTIIGSEDGLGVECIRGSGLIAGATSRAYHDIFTITLVTCRSVGIGAYLVRLGQRAIQVEGQPIILTGAPAINKMLGREVYTSNLQLGGTQIMYNNGVSHLTAVDDLAGVEKIVEWMSYVPAKRNMPVPILETKDTWDRPVDFTPTNDETYDVRWMIEGRETESGFEYGLFDKGSFFETLSGWAKGVVVGRARLGGIPLGVIGVETRTVENLIPADPANPNSAETLIQEPGQVWHPNSAFKTAQAINDFNNGEQLPMMILANWRGFSGGQRDMFNEVLKYGSFIVDALVDYKQPIIIYIPPTGELRGGSWVVVDPTINADQMEMYADVNARAGVLEPQGMVGIKFRREKLLDTMNRLDDKYRELRSQLSNKSLAPEVHQQISKQLADRERELLPIYGQISLQFADLHDRSSRMVAKGVISKELEWTEARRFFFWRLRRRLNEEYLIKRLSHQVGEASRLEKIARIRSWYPASVDHEDDRQVATWIEENYKTLDDKLKGLKLESFAQDLAKKIRSDHDNAIDGLSEVIKMLSTDDKEKLLKTLK
modifications: left off: small tags and cut ends

How the values were obtained:
CT domain of yeast ACC = molecular target: T1, CT domain of yeast ACC (Saccharomyces cerevisiae, UniProt Q00955); assay: CT domain enzyme kinetic assay, inhibition (decarboxylation of malonyl-CoA coupled to citrate synthase and malate dehydrogenase); type: biochemical, S. cerevisiae
T1 construct: made in house; host or cells: E. coli (pET24d)
T1 sequence (Q00955 1429-2233): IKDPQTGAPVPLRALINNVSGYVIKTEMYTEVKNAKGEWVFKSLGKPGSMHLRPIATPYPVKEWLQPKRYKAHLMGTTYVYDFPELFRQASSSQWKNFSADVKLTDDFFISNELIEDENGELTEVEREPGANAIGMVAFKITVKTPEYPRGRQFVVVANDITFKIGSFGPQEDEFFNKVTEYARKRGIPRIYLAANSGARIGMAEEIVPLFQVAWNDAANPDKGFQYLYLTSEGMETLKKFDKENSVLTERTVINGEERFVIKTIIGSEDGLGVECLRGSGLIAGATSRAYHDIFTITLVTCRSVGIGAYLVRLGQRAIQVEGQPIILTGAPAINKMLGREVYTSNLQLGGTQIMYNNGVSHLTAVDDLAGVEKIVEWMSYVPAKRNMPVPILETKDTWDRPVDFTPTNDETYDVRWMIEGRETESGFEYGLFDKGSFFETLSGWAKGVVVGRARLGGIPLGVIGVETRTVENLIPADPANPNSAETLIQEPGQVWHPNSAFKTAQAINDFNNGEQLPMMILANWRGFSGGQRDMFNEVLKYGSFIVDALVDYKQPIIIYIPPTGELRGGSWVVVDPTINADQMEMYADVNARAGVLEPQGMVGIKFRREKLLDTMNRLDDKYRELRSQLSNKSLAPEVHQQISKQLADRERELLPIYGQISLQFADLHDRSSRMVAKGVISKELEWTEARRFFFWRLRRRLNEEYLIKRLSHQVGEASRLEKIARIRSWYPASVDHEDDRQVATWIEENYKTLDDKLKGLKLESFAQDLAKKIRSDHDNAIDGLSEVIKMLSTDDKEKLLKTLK
From the text: The CT domain can catalyze the decarboxylation of malonyl-CoA to produce acetyl-CoA in the presence of biotin methyl ester. Thus, the enzyme kinetic assays monitor the production of acetyl-CoA by coupling it to citrate synthase and malate dehydrogenase, which ultimately lead to the reduction of NAD^+.
Enzyme kinetic assays. The CT domain can catalyze the decarboxylation of malonyl-CoA to produce acetyl-CoA in the presence of biotin methyl ester. The kinetic assays monitored the production of acetyl-CoA by coupling it to citrate synthase and malate dehydronase, which ultimately lead to the reduction of NAD^+ (Guchhait et al., 1974, J. Biol. Chem. 9:6633-6645).

mammalian ACC2 = settings: cited from earlier work
ACC = settings: cited from earlier work
[1] = molecular target: T2, L1705I, V1967I and L1705I/V1967I mutants of the yeast CT domain (Saccharomyces cerevisiae, UniProt Q00955); assay: CT domain enzyme kinetic assay, inhibition of mutant CT domains; type: biochemical, S. cerevisiae; settings: single and double mutants; malonyl-CoA 750 μM, mutants at 20 μM
T2 construct: fused on or other part: C-terminal His-tag (pET24d)
T2 sequence (Q00955 whole entry L1705I/V1967I, form open, the tested form may be a part): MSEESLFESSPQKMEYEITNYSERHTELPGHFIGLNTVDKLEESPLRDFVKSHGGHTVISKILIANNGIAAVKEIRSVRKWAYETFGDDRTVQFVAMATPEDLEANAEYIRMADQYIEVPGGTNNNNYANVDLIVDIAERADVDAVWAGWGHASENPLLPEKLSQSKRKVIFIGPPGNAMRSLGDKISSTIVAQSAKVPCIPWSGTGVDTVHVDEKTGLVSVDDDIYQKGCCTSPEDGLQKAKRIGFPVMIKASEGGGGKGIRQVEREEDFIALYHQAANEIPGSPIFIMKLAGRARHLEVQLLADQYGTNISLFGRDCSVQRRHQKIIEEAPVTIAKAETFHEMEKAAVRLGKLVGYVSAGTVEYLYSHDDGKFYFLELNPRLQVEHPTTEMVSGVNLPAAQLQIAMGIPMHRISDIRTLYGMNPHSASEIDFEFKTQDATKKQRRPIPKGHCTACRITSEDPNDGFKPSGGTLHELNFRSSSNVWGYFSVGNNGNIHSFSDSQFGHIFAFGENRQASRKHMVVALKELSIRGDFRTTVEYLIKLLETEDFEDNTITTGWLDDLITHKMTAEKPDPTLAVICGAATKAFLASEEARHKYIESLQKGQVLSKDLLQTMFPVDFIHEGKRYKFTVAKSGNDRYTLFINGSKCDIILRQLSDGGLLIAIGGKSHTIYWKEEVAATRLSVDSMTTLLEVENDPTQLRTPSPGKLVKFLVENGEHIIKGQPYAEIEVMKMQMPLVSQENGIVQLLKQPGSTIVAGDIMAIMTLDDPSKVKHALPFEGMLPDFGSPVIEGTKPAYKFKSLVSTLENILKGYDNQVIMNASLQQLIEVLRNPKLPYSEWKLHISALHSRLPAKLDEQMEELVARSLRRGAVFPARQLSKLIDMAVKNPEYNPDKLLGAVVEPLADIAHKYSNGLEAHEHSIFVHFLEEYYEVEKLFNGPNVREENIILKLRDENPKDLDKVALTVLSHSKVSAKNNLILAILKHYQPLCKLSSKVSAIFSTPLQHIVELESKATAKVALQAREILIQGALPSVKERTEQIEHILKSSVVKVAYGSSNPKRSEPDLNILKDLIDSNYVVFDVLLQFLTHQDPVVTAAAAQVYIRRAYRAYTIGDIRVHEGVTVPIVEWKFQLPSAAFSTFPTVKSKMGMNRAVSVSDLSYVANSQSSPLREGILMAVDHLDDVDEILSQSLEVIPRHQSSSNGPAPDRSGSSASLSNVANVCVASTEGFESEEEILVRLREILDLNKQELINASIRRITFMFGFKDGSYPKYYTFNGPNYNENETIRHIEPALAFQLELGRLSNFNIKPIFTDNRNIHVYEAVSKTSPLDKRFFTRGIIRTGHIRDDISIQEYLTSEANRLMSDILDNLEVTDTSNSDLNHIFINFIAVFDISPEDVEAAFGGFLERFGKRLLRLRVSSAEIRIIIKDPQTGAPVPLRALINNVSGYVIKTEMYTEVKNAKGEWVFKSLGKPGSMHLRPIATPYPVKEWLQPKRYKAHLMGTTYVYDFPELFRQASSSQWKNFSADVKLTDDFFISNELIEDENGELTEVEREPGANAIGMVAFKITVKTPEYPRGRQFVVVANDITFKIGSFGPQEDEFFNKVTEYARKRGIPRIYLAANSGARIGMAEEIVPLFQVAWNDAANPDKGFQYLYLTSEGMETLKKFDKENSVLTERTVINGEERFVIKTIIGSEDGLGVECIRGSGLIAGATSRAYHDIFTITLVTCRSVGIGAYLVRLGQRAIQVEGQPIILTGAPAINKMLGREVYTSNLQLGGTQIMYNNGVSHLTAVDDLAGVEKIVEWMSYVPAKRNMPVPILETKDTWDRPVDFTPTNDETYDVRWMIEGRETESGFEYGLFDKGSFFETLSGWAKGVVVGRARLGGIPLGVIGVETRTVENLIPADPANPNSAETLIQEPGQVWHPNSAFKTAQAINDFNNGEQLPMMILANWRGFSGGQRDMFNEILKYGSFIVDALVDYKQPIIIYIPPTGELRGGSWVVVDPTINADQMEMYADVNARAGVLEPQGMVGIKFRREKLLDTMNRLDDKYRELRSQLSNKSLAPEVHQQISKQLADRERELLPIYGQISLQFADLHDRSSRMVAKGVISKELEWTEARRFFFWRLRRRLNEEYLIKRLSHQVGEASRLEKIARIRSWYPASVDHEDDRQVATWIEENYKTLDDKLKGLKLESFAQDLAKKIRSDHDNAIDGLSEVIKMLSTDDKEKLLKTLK
From the text: (§1) Enzyme kinetic assays. The CT domain can catalyze the decarboxylation of malonyl-CoA to produce acetyl-CoA in the presence of biotin methyl ester. The kinetic assays monitored the production of acetyl-CoA by coupling it to citrate synthase and malate dehydronase, which ultimately lead to the reduction of NAD^+ (Guchhait et al., 1974, J. Biol. Chem. […]). Mutations in the active site were designed based on the structural information. The mutants were made with the QuikChange kit (Stratagene) and sequenced for confirmation. They were purified and assayed kinetically under the same condition as the wild-type protein. The kinetic parameters for each enzyme were obtained by non-linear least-squares fitting to the initial velocity data.
Mutagenesis and kinetic assays. The L1705I and V1967I single-site mutants as well as the L1705I/V1967I double mutant were made with the QuikChange kit (Stratagene), from the expression construct that covers residues 1476-2233. The mutants were sequenced, expressed in E. coli, and purified following the same protocol as that for thewild-type CT domain. […]

[2] = Kinetic parameters of wild-type and mutant yeast CT (reverse reaction, malonyl-CoA to biotin methyl ester); type: biochemical, S. cerevisiae; settings: 2.5 μM of the enzyme
From the text: as §1
To characterize the functional roles of the conserved residues in the active site, many of them were mutated and the kinetic parameters of the mutants for the reverse reaction, which transfers the carboxyl group of malonyl-CoA to biotin (Table D) were determined. […] Based on the structures of the invention, it is likely that this residue is important for recognizing the carboxyl group of malonyl-CoA, and this is also consistent with the hypothesis that the biotin substrate may be mostly associated with the C domain. Of the charged side chains that interact with the phosphate groups of CoA, mutation of Arg1731 gave rise to a 14-fold increase in the Km for malonyl-CoA (Table D), consistent with the structural observations. On the other hand, mutation of Arg2036 had minimal effects on the enzyme catalysis.
Mutagenesis and kinetic assays. The L1705I and V1967I single-site mutants as well as the L1705I/V1967I double mutant were made with the QuikChange kit (Stratagene), from the expression construct that covers residues 1476-2233. The mutants were sequenced, expressed in E. coli, and purified following the same protocol as that for thewild-type CT domain. The catalytic activity of the CT domain was assayed following protocols described earlier (Guchhait, R. B. et al. (1974) Acetyl coenzyme A carboxylase system from Escherichia coli. Purification and properties of the biotin carboxylase, carboxyltransferase, and carboxyl carrier protein components. J Biol Chem 249, 6633-6645; Zhang et al., 2003). […] The concentration of the malonyl-CoA substrate was kept close to the expected Km, 75 μM for the wild-type enzyme and 750 μM for the mutants. The wild-type enzyme was at 2.5 μM concentration, whereas the mutants were at 20 μM concentration.

[3] = molecular target: the molecule itself; assay: light scattering in solution (homodimer)

| Molecule | Km [2] [µM] | Vmax [2] | other results |
| --- | --- | --- | --- |
| O=C(c1c2ccccc2cc2ccccc12)N1CCC(N2CCC[C@@H](C(=O)N3CCOCC3)C2)CC1 [CP-640186] | – | – | Ki (CT domain of yeast ACC; versus malonyl-CoA, about 3 μM of enzyme in the reaction buffer, read-out: Ki): ~4 µM; mode of inhibition (CT domain of yeast ACC; with respect to malonyl-CoA): non-competitive; IC50 (mammalian ACC2): ~55 nM |
| CC(Oc1ccc(Oc2ncc(C(F)(F)F)cc2Cl)cc1)C(=O)SCCNC(=O)CCNC(=O)C(O)C(C)(C)COP(=O)(O)OP(=O)(O)OCC1OC(n2cnc3c(N)ncnc32)C(O)C1OP(=O)(O)O (stereo not drawn) [CoA ester of haloxyfop] | – | – | potency relative to haloxyfop (ACC): more potent inhibitor |
| CC(Oc1ccc(Oc2ncc(C(F)(F)F)cc2Cl)cc1)C(=O)O (stereo not drawn) [haloxyfop] | – | – | Ki (CT domain of yeast ACC): ~500 µM; Ki [1]: ~500 µM |
| E1994Q | 109 ± 5 | 272 ± 3 ×10^−5 AU/s | – |
| E2026Q | 218 ± 24 | 144 ± 6 ×10^−5 AU/s | – |
| R1731S | 909 ± 72 | 385 ± 10 ×10^−5 AU/s | – |
| R1954S | 5100 ± 1200 | 39 ± 6 ×10^−5 AU/s | – |
| R2036E | 41 ± 4 | 133 ± 3 ×10^−5 AU/s | – |
| Y1738F | 53 ± 6 | 152 ± 3 ×10^−5 AU/s | – |
| B1 | – | – | binding result [3]: binds |
| B2 | 1340 ± 180 | 12 ± 0.3 ×10^−5 AU/s | – |
